The values that follow come from publication PMC11021501, “Insights into the inhibition of protospacer integration via direct interaction between Cas2 and AcrVA5” (Nature Communications, 2024).

B3: Treponema denticola Cas2 (natural protein)
chain: MRVIVFFDLPVITPENRHNYSVFRKYLIKSGFIMQQKSVYSKLVLNLTNRDSIVKSIEKNKPPEGLVEVLTVTEKQYAKMEIIIGESKTEYLNTDERLVVL
notes: Cas2 of Treponema denticola, type II-A CRISPR-Cas system; gene amplified and cloned into a modified pET32a vector with a precession enzyme cleavage site; A GST-tagged Cas2 (pGEX-6p-1, GST removed) was also made; Dimer by the crystal structure; also called Td-Cas2; WT-Cas2; not shown: Trx, N-terminal, cleaved

Data set [1] addresses T1, Treponema denticola Cas2 (Treponema denticola, UniProt Q73QW4 1-101).
T1 chain: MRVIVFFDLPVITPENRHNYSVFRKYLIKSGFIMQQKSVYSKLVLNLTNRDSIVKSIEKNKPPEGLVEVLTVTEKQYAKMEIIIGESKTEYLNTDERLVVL
Briefly: ITC.

Data set [2] concerns the target Treponema denticola Cas2 (Treponema denticola) (UniProt Q73QW4). Briefly: ITC; AcrVA5 (400 µM) injected into 50 µM Cas2 in the sample cell, 25 °C, 20 mM Tris pH 7.4, 200 mM NaCl; also AcrVA5 mutants and AcrVA5 peptides with Cas2. In general terms: Isothermal titration calorimetry measures the heat released or taken up as one component is titrated into another.
For data set [3], the target named is B3. The data set is described as above. The conditions noted are these: both partners purified.
Data set [4] concerns the molecule itself. Briefly: crystal structure; Cas2 with peptide at molar ratio 1:1.2, hanging drop, 15% PEG3350, 10% glycerol, 0.1 M Tris pH 6.4; 2.0 Å.

B1: AcrVA5-L5A (natural protein)
chain: MKIEASGGYICYSIEEDEVTIDMVEVTTKRQGIGSQLIDMVKDVAREVGLPIGLYAYPQDDSISQEDLIEFYFSNDFEYDPDDVDGRLMRWS
With B1, the Kd amounted to 1060 nM in the data set with Treponema denticola Cas2 [1] and 1300 nM in data set [2].

B2: Moraxella bovoculi AcrVA5 (natural protein)
chain: MKIELSGGYICYSIEEDEVTIDMVEVTTKRQGIGSQLIDMVKDVAREVGLPIGLYAYPQDDSISQEDLIEFYFSNDFEYDPDDVDGRLMRWS
modifications: C-terminal His-tag left out; the vector-derived PLGS of 6IUF is dropped, so entity number = AcrVA5 number + 4
For the molecule B2, in the data set with Treponema denticola Cas2 [3], the Ka turned out to be 939000 M⁻¹, the Kd was 1100 nM, the dH turned out to be 4.23 ± 0.165 kcal/mol and the “stoichiometry N” value was 0.596 ± 0.0158.
In the case of B3, the “stoichiometry N” value in data set [4] turned out to be 2.

A word on the Kd: it is the free concentration of one partner at which half of the binding sites on the other are occupied at equilibrium, for simple one-to-one binding. High values mean weaker binding, low ones tighter binding. By stoichiometry N is commonly meant a count of units in the complex or per binding partner.
